Results reported in paper PMC6842305 (Journal of medicinal chemistry, 2018).

Target: Truncated WDR5 (Δ23, residues 22–334) (UniProt P61964 22-334)
Experiment: NMR titration

B1: MLL1 10mer peptide Ac-ARTEVHLRKS-NH2 (peptide)
peptide: Ac-ARTEVHLRKS-NH2
binding result: binds
